{"source": "paper PMC10516056", "key": {"[1]": {"target": "SPARTA heterodimer (TIR-APAZ/short pAgo complex) from Crenotalea thermophila (Crenotalea thermophila)", "experiment": "cryo-EM structure"}, "[2]": {"target": "SPARTA heterodimer (TIR-APAZ/short pAgo complex) from Crenotalea thermophila (Crenotalea thermophila)", "experiment": "mass photometry"}}, "note": "Several values for one entry are separate records, joined by “and”; a condition that tells them apart may be missing. Equal entries are not always repeated."}
{"substance": "SPARTA heterodimer (TIR-APAZ/short pAgo complex) from Crenotalea thermophila", "values": [{"measurement": "stoichiometry N", "setting": "[1]", "result": 4}, {"measurement": "stoichiometry N", "setting": "[2]", "result": "2 and 4"}]}
